Data from PMC4466236, “A Novel AT-Rich DNA Recognition Mechanism for Bacterial Xenogeneic Silencer MvaT”.

What was measured:
[1] = biological target: T1, MvaT (Pseudomonas aeruginosa PAO1) (UniProt Q9HW86)
T1 sequence: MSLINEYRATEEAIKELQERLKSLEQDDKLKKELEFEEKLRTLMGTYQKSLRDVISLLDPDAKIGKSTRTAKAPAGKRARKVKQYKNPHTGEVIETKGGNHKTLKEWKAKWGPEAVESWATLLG

[2] = biological target: T2, MvaT full-length (Pseudomonas aeruginosa PAO1?) (UniProt Q9HW86); test: EMSA; settings: EMSA: 8 mM Tris pH 8.0, 15 mM HEPES pH 7.9, 40 mM NaCl, 40 mM KCl, 1.4 mM EDTA, 0.5 mM DTT, 9.95% glycerol, room temp, NMR: 50 mM Na phosphate, 50 mM NaCl
T2 sequence: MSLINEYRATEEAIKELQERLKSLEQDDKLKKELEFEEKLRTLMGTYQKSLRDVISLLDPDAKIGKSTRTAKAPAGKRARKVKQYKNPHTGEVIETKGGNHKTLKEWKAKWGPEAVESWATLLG

[3] = system: MvaT full-length (Pseudomonas aeruginosa PAO1?); test: EMSA; settings: EMSA: 8 mM Tris pH 8.0, 15 mM HEPES pH 7.9, 40 mM NaCl, 40 mM KCl, 1.4 mM EDTA, 0.5 mM DTT, 9.95% glycerol, room temp, NMR: 50 mM Na phosphate, 50 mM NaCl
[4] = system: MvaT full-length (Pseudomonas aeruginosa PAO1?); test: competition; settings: EMSA: 8 mM Tris pH 8.0, 15 mM HEPES pH 7.9, 40 mM NaCl, 40 mM KCl, 1.4 mM EDTA, 0.5 mM DTT, 9.95% glycerol, room temp, NMR: 50 mM Na phosphate, 50 mM NaCl
[5] = biological target: T3, MvaTctd WT (Pseudomonas aeruginosa PAO1, UniProt Q9HW86 77-124); test: ITC; 283 K; EMSA: 8 mM Tris pH 8.0, 15 mM HEPES pH 7.9, 40 mM NaCl, 40 mM KCl, 1.4 mM EDTA, 0.5 mM DTT, 9.95% glycerol, room temp; NMR: 50 mM Na phosphate, 50 mM NaCl, pH 6.0, 298 K; ITC: 283 K, 0.15 mM DNA in cell, buffer not stated (protein purified in NMR buffer); settings: protein: recombinant; tags: C-terminal His6; blunt, self-complementary
T3 chain: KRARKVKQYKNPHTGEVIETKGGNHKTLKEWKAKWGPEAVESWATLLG

[6] = biological target: T4, MvaTctd K81A (Pseudomonas aeruginosa PAO1, UniProt Q9HW86 77-124, K81A); test: NMR titration; similar to WT; EMSA: 8 mM Tris pH 8.0, 15 mM HEPES pH 7.9, 40 mM NaCl, 40 mM KCl, 1.4 mM EDTA, 0.5 mM DTT, 9.95% glycerol, room temp; NMR: 50 mM Na phosphate, 50 mM NaCl, pH 6.0, 298 K; ITC: 283 K, 0.15 mM DNA in cell, buffer not stated (protein purified in NMR buffer); settings: protein: recombinant; tags: C-terminal His6; blunt, self-complementary
T4 chain: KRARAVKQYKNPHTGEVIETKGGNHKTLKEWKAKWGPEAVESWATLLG

[7] = biological target: T5, MvaTctd K97A (Pseudomonas aeruginosa PAO1, UniProt Q9HW86 77-124, K97A); test: as above; settings: protein: recombinant; tags: C-terminal His6; blunt, self-complementary
T5 chain: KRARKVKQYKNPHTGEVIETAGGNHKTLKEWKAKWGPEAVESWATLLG

[8] = biological target: T6, MvaTctd R80A (Pseudomonas aeruginosa PAO1, UniProt Q9HW86 77-124, R80A); test: ITC; 283 K; EMSA: 8 mM Tris pH 8.0, 15 mM HEPES pH 7.9, 40 mM NaCl, 40 mM KCl, 1.4 mM EDTA, 0.5 mM DTT, 9.95% glycerol, room temp; NMR: 50 mM Na phosphate, 50 mM NaCl, pH 6.0, 298 K; ITC: 283 K, 0.15 mM DNA in cell, buffer not stated (protein purified in NMR buffer); settings: protein: recombinant; tags: C-terminal His6; blunt, self-complementary
T6 chain: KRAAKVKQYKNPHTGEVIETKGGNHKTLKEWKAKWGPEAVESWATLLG

[9] = biological target: T7, MvaTctd N100A (Pseudomonas aeruginosa PAO1, UniProt Q9HW86 77-124, N100A); test: as above; settings: protein: recombinant; tags: C-terminal His6; blunt, self-complementary
T7 chain: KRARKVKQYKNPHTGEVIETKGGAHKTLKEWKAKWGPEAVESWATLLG

[10] = biological target: T8, MvaTctd K105A (Pseudomonas aeruginosa PAO1, UniProt Q9HW86 77-124, K105A); test: as above; settings: protein: recombinant; tags: C-terminal His6; blunt, self-complementary
T8 chain: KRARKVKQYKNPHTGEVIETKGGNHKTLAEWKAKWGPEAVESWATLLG

[11] = biological target: T9, MvaTctd K108A (Pseudomonas aeruginosa PAO1, UniProt Q9HW86 77-124, K108A); test: as above; settings: protein: recombinant; tags: C-terminal His6; blunt, self-complementary
T9 chain: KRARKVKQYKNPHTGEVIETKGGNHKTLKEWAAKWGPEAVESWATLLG

[12] = biological target: T10, MvaTctd K102A (Pseudomonas aeruginosa PAO1, UniProt Q9HW86 77-124, K102A); test: ITC; 283 K; slightly lower affinity, Kd +70%; EMSA: 8 mM Tris pH 8.0, 15 mM HEPES pH 7.9, 40 mM NaCl, 40 mM KCl, 1.4 mM EDTA, 0.5 mM DTT, 9.95% glycerol, room temp; NMR: 50 mM Na phosphate, 50 mM NaCl, pH 6.0, 298 K; ITC: 283 K, 0.15 mM DNA in cell, buffer not stated (protein purified in NMR buffer); settings: protein: recombinant; tags: C-terminal His6; blunt, self-complementary
T10 chain: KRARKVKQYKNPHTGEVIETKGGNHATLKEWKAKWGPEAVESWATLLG

Molecule “AAATATAT (double strand) [8-mer AAATATAT]” has a binding signal (PBM E-score (-0.5 to 0.5)) [1] of 0.482.

Molecule “AATATATA (double strand) [8-mer AATATATA]” has a binding signal (PBM E-score (-0.5 to 0.5)) [1] of 0.486.

For “AATATATT (double strand) [8-mer AATATATT]”, the binding signal (PBM E-score (-0.5 to 0.5)) [1] was 0.485.

“AATATTAA (double strand) [8-mer AATATTAA]” showed a binding signal (PBM E-score (-0.5 to 0.5)) [1] of 0.478.

“ATATAATA (double strand) [8-mer ATATAATA]” was tested, and the binding signal (PBM E-score (-0.5 to 0.5)) [1] was 0.484.

With “ATATATAA (double strand) [8-mer ATATATAA]” the binding signal (PBM E-score (-0.5 to 0.5)) [1] was 0.487.

With “ATATATAT (double strand) [8-mer ATATATAT]” the binding signal (PBM E-score (-0.5 to 0.5)) [1] was 0.491.

“ATATATTA (double strand) [8-mer ATATATTA]” was tested, and the binding signal (PBM E-score (-0.5 to 0.5)) [1] was 0.489.

For “ATATTAAT (double strand) [8-mer ATATTAAT]”, the binding signal (PBM E-score (-0.5 to 0.5)) [1] was 0.484.

Work on “CCGCAGGTGGCTGAACAGGCCGTGCGCTGGCTGGTCGAGCTGCAGGGCGGCGCCGACGACGAACGCCTGCGCCAGGCCTGGCAGCGCTGGCGCCAGGCGGCCCCGGAACACGAGCAGGCCTGGCGCCACATCGAGGCGGTCAACCAGCGCCTGGCCGGGATAGGCACGCCACTGGCCCTGGCCGCCATCAACGCACCGCATTCG (double strand) [PA3900 204 bp fragment]” yielded a Kd [2] of 154 nM.

In the case of PA3900 204 bp fragment, the Kd ([3]; apparent Kd) is reported as 154 nM.

PA3900 204 bp fragment, unlabeled was tested, and the binding (fold molar excess) [4] was over 200.

With “TATATATA (double strand) [8-mer TATATATA]” the binding signal (PBM E-score (-0.5 to 0.5)) [1] was 0.493.

For “TATATTAA (double strand) [8-mer TATATTAA]”, the binding signal (PBM E-score (-0.5 to 0.5)) [1] was 0.482.

Work on “TATTAATA (double strand) [8-mer TATTAATA]” yielded a binding signal (PBM E-score (-0.5 to 0.5)) [1] of 0.481.

Work on “TATTATAA (double strand) [8-mer TATTATAA]” yielded a binding signal (PBM E-score (-0.5 to 0.5)) [1] of 0.48.

In the case of “TTAATTAA (double strand) [8-mer TTAATTAA]”, the binding signal (PBM E-score (-0.5 to 0.5)) [1] is reported as 0.481.

With “TTATATAA (double strand) [8-mer TTATATAA]” the binding signal (PBM E-score (-0.5 to 0.5)) [1] was 0.483.

In the case of cupA1 promoter 340 bp, the Kd [3] is reported as 57 nM.

B1: 3AT (dsDNA)
DNA 1: CGCATATATGCG
DNA 2: CGCATATATGCG
For B1, the Kd [5] was about 10700 nM, the binding result [6] was “binds” and the binding result [7] was “binds”. The binding signal [8] was over 10 fold Kd increase vs WT, the binding signal [9] was over 3 fold Kd increase vs WT and the binding signal [10] was over 3 fold Kd increase vs WT. The binding signal [11] was over 10 fold Kd increase vs WT and the binding signal [12] was about 1.7 fold Kd increase vs WT.

B2: GC-rich d(CGCGCGCG)2 (dsDNA)
DNA 1: CGCGCGCG
DNA 2: CGCGCGCG
With B2 the Kd [5] was about 360000 nM.
